Experimental data reported in US20200002415A1 (published 2020).

What was measured:
[1] = molecular target: T1, Recombinant FcγRIIA-131H/H allotype (generated at MedImmune) (human, UniProt P12318 34-217, limits assumed); assay: ELISA on coated recombinant FcγRIIA-131H/H
T1 construct: ELISA coating protein; also called human FcγRIIA; CD32A
T1 sequence: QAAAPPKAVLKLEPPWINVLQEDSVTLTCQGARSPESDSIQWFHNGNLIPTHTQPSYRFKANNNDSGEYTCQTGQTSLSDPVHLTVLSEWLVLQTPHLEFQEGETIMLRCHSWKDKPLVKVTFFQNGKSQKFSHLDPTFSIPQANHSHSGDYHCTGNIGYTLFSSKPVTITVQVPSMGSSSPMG
Protocol: Plates were washed five times with 200 μl of wash buffer (PBS containing 0.1% Tween 20), blocked with blocking buffer containing 5% milk in PBS for 1 hour at room temperature, and washed five additional times with wash buffer. Three-fold serial dilutions of the test antibody or control antibody (R347-Tm) were added to wells in duplicate. Plates were incubated for 2 hours at room temperature, and washed five times with wash buffer. Binding of the antibodies to the FcγRs was detected by adding 50 μl of goat anti-human Fc-HRP (Jackson ImmunoResearch Laboratories, PA) to the wells and incubating for 1 hour at room temperature, washing 10 times, and adding 50 μl TMB substrate (Pierce Biotechnology, MA). The color reaction was stopped with 50 μl 0.2M […] and the absorbance was measured using a spectrophotometer (Molecular Devices, CA) at […].

[2] = molecular target: T2, human FcγRIIA 131R on blood cells of 131R/R donors (human, UniProt P12318 34-317); assay: cell-based or functional assay
T2 chain: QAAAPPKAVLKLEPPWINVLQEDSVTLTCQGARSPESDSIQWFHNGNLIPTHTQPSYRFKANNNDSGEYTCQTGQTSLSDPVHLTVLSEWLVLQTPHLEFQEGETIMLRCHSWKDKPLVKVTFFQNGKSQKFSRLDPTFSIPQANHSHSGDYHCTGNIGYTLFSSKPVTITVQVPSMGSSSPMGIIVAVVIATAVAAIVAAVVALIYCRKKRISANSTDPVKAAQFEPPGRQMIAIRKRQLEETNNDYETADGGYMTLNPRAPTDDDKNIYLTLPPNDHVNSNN

B1: 32LO0350 (antibody, human IgG1, V domains shown)
VH: QVQLVQSGAEVKKPGASVKVSCKASGYTFTNYGMNWVRQAPGQRLEWMGWLNTYTGESWYPDDFKGRVTITRDTSASTAYMELSSLRSEDTAVYYCARGDYGYDDPLDYWGQGTLVTVSS
VL: DIVMTQSPLSLPVTPGEPASISCRSSKSLLHTNRNTYLHWFLQKPGQSPQLLIYRMSVLASGVPDRFSGSGSGTDFTLKISRVEAEDVGVYYCMQHLEYPLTFGQGTKLEIK
notes: expressed as human IgG1-TM with human kappa light chain; also called optimized IV.3 clone 32LO0350
B1: binds [1].

B2: 32LO0354 (antibody, human IgG1, V domains shown)
VH: QVQLVQSGAEVKKPGASVKVSCKASGYTFTNYGMNWVRQAPGQRLEWMGWLNTYTGESYYPDDFKGRVTITRDTSASTAYMELSSLRSEDTAVYYCARGDYGYDDPLDYWGQGTLVTVSS
VL: DIVMTQSPLSLPVTPGEPASISCRSSKSLLHTNRNTYLHWFLQKPGQSPQLLIYRMSVLASGVPDRFSGSGSGTDFTLKISRVEAEDVGVYYCMQHLEYPLTFGQGTKLEIK
notes: expressed as human IgG1-TM with human kappa light chain; also called optimized IV.3 clone 32LO0354
B2: binds [1].

B3: 32LO0355 (antibody, human IgG1, V domains shown)
VH: QVQLVQSGAEVKKPGASVKVSCKASGYTFTNYGMNWVRQAPGQRLEWMGWLNTYTGESWYPDDFKGRVTITRDTSASTAYMELSSLRSEDTAVYYCARGDYGYDDPLDYWGQGTLVTVSS
VL: DIVMTQSPLSLPVTPGEPASISCRSSKSLLHTNKNTYLHWFLQKPGQSPQLLIYRMSVLASGVPDRFSGSGSGTDFTLKISRVEAEDVGVYYCMQHLEYPLTFGQGTKLEIK
notes: expressed as human IgG1-TM with human kappa light chain; also called optimized IV.3 clone 32LO0355
B3: binds [1].

B4: chimeric IV.3 (human IgG1-TM) (antibody, V domains shown)
VH: QIQLVQSGPELKKPGETVKISCKASGYTFTNYGMNWVKQAPGKGLKWMGWLNTYTGESIYPDDFKGRFAFSSETSASTAYLQINNLKNEDMATYFCARGDYGYDDPLDYWGQGTSVTVSS
VL: DIVMTQAAPSVPVTPGESVSISCRSSKSLLHTNGNTYLHWFLQRPGQSPQLLIYRMSVLASGVPDRFSGSGSGTAFTLSISRVEAEDVGVFYCMQHLEYPLTFGAGTKLELK
In the case of B4, the “EC50 of FcγRIIA internalization from the monocyte surface, whole blood FACS assay” value [2] is reported as 0.2 nM.
